These results are taken from patent US20180111972A1 (Stanford University, published 2018).

In assay [1] the target is T1, human VEGFR on human umbilical vein endothelial cells (HUVECs) (human, UniProt P35968 20-1356).
T1 construct: The phosphorylation blots on these cells detect VEGFR2
Kind of assay: flow cytometry on HUVECs, soluble ligand titrated.

The target in assay [2] is T1, human VEGFR on human umbilical vein …. Kind of assay: flow cytometry on HUVECs, soluble ligand titrated 3 h at 4 C, anti-FLAG-PE.
Method: Cells were incubated with various concentrations of hybrid PDGF/VEGF for 3 hours at 4° C. Binding was detected using an R-PE-conjugated anti-FLAG antibody, then analyzed by flow cytometry.
Assay [3] shares this target. Briefly: cell-based or functional assay.

T1 sequence (P35968 20-1356 limits assumed): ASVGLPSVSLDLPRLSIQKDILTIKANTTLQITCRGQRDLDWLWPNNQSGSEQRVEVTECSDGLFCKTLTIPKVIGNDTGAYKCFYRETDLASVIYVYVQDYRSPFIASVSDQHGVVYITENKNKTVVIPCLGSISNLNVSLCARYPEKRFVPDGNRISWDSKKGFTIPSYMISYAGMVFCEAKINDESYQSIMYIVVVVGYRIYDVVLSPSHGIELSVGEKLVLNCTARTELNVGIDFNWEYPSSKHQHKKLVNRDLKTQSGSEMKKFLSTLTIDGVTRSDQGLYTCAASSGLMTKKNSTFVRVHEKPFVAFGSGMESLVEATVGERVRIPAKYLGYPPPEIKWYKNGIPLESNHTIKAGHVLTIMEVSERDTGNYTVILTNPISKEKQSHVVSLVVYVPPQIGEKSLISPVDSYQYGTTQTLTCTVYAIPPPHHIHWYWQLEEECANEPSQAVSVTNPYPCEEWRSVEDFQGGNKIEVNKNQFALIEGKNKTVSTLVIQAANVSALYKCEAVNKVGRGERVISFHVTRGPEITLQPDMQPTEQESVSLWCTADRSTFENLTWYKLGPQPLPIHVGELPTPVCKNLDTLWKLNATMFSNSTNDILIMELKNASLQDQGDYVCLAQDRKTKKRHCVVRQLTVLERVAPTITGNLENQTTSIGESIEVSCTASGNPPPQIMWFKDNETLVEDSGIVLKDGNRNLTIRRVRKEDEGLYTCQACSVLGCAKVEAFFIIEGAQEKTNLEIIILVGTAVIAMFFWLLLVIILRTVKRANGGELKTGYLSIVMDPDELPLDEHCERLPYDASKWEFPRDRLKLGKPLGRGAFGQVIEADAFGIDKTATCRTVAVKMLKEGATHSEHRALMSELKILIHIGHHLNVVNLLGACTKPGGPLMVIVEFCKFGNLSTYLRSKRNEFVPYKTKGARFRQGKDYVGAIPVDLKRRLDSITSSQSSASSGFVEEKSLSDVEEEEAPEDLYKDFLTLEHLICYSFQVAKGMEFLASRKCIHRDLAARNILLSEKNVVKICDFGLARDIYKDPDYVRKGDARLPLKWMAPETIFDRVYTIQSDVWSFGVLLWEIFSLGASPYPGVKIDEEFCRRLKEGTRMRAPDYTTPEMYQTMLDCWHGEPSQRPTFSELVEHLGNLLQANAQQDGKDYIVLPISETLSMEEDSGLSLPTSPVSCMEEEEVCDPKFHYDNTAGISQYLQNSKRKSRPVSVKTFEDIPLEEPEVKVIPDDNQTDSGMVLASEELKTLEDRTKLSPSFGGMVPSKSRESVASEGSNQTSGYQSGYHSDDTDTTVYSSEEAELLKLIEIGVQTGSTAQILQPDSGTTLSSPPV

B1: PVAM-S (PV R32A), soluble, FLAG and hexahistidine tags (designed binder)
chain: DYKDDDDKIAEPAMIAECHPIETLVDILQEYPDEIGYIFKPSCVPLMRCGGCCNNRNVQCRPTEESNITMQIMRIKPHRGQHIGEMSFLQHNKCRCETVAAGSTSGSGKSSEGKGEVVKFMDVYQRSYCKTRTEVFEISRRLIDATNANFLVWPPCVEVQRCSGCCNHEGLECVPTQVQLRPVQVRKIEFVRKKPIFKKATVTLEDHLACECRPKKDHHHHHH
notes: Secreted from S. cerevisiae YVH10 and treated with Endo Hf
With B1, the “fold improvement over the bivalent scVEGFwt” value in assay [1] turned out to be 7.5 fold. Besides, the Kd in assay [2] worked out at 0.2 nM.

B2: PV6 PDGF/VEGF chimera, soluble, N-terminal FLAG and C-terminal hexahistidine tags (designed binder)
chain: DYKDDDDKIAEPAMIAECHPIETLVDIFQEYPDEIEYIFKPSCVPLMRCGGCCNNRNVQCRPTEESNITMQIMRIKPHQGQHIGEMSFLQHNKCKCETVAAGSTSGSGKSSEGKGEVVKFMDVYQRSYCKTRTEVFEISRRLIDRTNANFLVWPPCVEVQRCSGCCNDEGLECVPTQVQLRPVQVRKIEIVRKKPIFKKATVTLEDHLACKCRPKKDHHHHHH
notes: Secreted from S. cerevisiae YVH10 and treated with Endo Hf; also called soluble PV6
For the molecule B2, the “IC50 of inhibition of HUVEC proliferation induced by 0.5 nM VEGF165, alamarBlue” value in assay [3] was determined as 110 nM.
